Laboratory results: the supplement of paper PMC10724198
± gives the standard deviation of the averaged measurements.

What was measured:
Saccharomyces cerevisiae [1] = test: protein stability index of tFT-peptide fusion (C-terminal peptide) (PSI (0-1 scale)); higher = more stable (slower turnover)
Experimental: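 MPS profiling in S. cerevisiae of the tFT-X12 degron library: putative degron peptides plus stable controls, 12 aa, fused to the C-terminus of a sfGFP-mCherry timer. Cells are FACS-sorted into 8 mCherry/sfGFP bins and deep-sequenced. PSI runs from 0 (unstable) to 1 (stable). Backgrounds are wild type, das1Δ and doa10Δ at 30 °C, and wild type, das1Δ, cdc34-1 and cdc53-1 at 37 °C; 2-3 technical replicates each.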

Saccharomyces cerevisiae [2] = test: as above; conditions: genetic background: wild type; temperature: 30 C
[3] = genetic background: cdc34-1, temperature: 37 C
[4] = genetic background: cdc53-1, temperature: 37 C
[5] = genetic background: das1 deletion, temperature: 30 C
[6] = genetic background: das1 deletion, temperature: 37 C
[7] = genetic background: doa10 deletion, temperature: 30 C
[8] = genetic background: wild type, temperature: 30 C
[9] = genetic background: wild type, temperature: 37 C
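Note: PSI is a weighted mean of sequencing reads over stability bins, variants kept only with over 10 reads, mCherry proximal and sfGFP distal, peptide attached via GGGS linker.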

Sequence | protein stability index (Saccharomyces cerevisiae [1]; [3]) | protein stability index (Saccharomyces cerevisiae [1]; [4]) | protein stability index (Saccharomyces cerevisiae [1]; [5]) | protein stability index (Saccharomyces cerevisiae [1]; [6]) | protein stability index (Saccharomyces cerevisiae [1]; [7]) | protein stability index (Saccharomyces cerevisiae [1]; [8]) | protein stability index (Saccharomyces cerevisiae [1]; [9]) | protein stability index (Saccharomyces cerevisiae [2])
LGKSTLYMALNN | 0.587 ± 0.057 | 0.716 ± 0.036 | 0.611 ± 0.011 | 0.695 ± 0.017 | 0.273 ± 0.013 | 0.309 ± 0.038 | 0.571 ± 0.11 | 0.402 ± 0.047
LCWRLCRFWWVG | 0.75 ± 0.068 | 0.8494 ± 0.0062 | 0.691 ± 0.033 | 0.829 ± 0.014 | 0.255 ± 0.0076 | 0.254 ± 0.024 | 0.424 ± 0.013 | 0.363 ± 0.016
VAFFSVFYWLEC | 0.287 ± 0.069 | 0.424 ± 0.066 | 0.299 ± 0.021 | 0.47 ± 0.033 | 0.261 ± 0.0032 | 0.29 ± 0.034 | 0.454 ± 0.018 | 0.365 ± 0.023
WLKLWSYVTHLG | 0.66 ± 0.047 | 0.723 ± 0.0092 | 0.632 ± 0.025 | 0.717 ± 0.022 | 0.303 ± 0.0094 | 0.346 ± 0.021 | 0.581 ± 0.017 | 0.477 ± 0.036
NYVFRIIIVLDA | 0.269 ± 0.01 | 0.408 ± 0.11 | 0.267 ± 0.035 | 0.429 ± 0.042 | 0.227 ± 0.059 | 0.245 ± 0.011 | 0.349 ± 0.031 | 0.444 ± 0.0058
YRFVWRWIPICA | 0.0342 ± 0.01 | 0.0919 ± 0.045 | 0.12 ± 0.038 | 0.116 ± 0.032 | 0.0307 ± 0.0093 | 0.038 ± 0.014 | 0.057 ± 0.026 | 0.0631 ± 0.022
VLYCRSCFLRVS | 0.543 ± 0.021 | 0.584 ± 0.015 | 0.436 ± 0.024 | 0.6292 ± 0.0028 | 0.1667 ± 0.0015 | 0.161 ± 0.0061 | 0.362 ± 0.023 | 0.281 ± 0.021
DVYIVLFIIKHG | 0.309 ± 0.052 | 0.395 ± 0.022 | 0.261 ± 0.052 | 0.4415 ± 0.0025 | 0.173 ± 0.0021 | 0.175 ± 0.034 | 0.3 ± 0.0092 | 0.241 ± 0.055
FFCSILLGIILL | 0.385 ± 0.014 | 0.401 ± 0.0091 | 0.364 ± 0.029 | 0.507 ± 0.016 | 0.47 ± 0.0098 | 0.37 ± 0.033 | 0.451 ± 0.011 | 0.399 ± 0.04
FLSVLPLFAFFA | 0.581 ± 0.026 | 0.658 ± 0.045 | 0.552 ± 0.025 | 0.68 ± 0.028 | 0.219 ± 0.011 | 0.258 ± 0.014 | 0.4221 ± 0.0032 | 0.333 ± 0.0081
FLVFPLLIQFFL | 0.2311 ± 0.0022 | 0.303 ± 0.015 | 0.356 ± 0.04 | 0.4346 ± 0.0039 | 0.346 ± 0.0097 | 0.257 ± 0.014 | 0.323 ± 0.014 | 0.36 ± 0.019
YPSASLLPLFSC | 0.594 ± 0.06 | 0.733 ± 0.017 | 0.622 ± 0.014 | 0.748 ± 0.015 | 0.126 ± 0.018 | 0.136 ± 0.017 | 0.184 ± 0.016 | 0.171 ± 0.004
CSPSCNIVRLVS | 0.527 ± 0.016 | 0.723 ± 0.025 | 0.632 ± 0.02 | 0.712 ± 0.008 | 0.11 ± 0.018 | 0.114 ± 0.017 | 0.198 ± 0.059 | 0.294 ± 0.022
IYLLLFFFSFSA | 0.365 ± 0.032 | 0.449 ± 0.053 | 0.376 ± 0.017 | 0.5104 ± 0.0037 | 0.3328 ± 6e-05 | 0.348 ± 0.029 | 0.457 ± 0.024 | 0.3914 ± 0.0012
VFFFVSFFAFSS | 0.213 ± 0.0054 | 0.3558 ± 0.0034 | 0.22 ± 0.029 | 0.406 ± 0.0024 | 0.172 ± 0.016 | 0.179 ± 0.04 | 0.3544 ± 0.0014 | 0.288 ± 0.053
YRWERIYIGLRL | 0.397 ± 0.037 | 0.523 ± 0.036 | 0.49 ± 0.039 | 0.615 ± 0.019 | 0.191 ± 0.008 | 0.188 ± 0.018 | 0.36 ± 0.0093 | 0.291 ± 0.024
FLAFSYIRLLFF | 0.468 ± 0.05 | 0.463 ± 0.019 | 0.454 ± 0.026 | 0.6128 ± 0.0054 | 0.135 ± 0.017 | 0.122 ± 0.023 | 0.178 ± 0.031 | 0.237 ± 0.012
QWTVRNQGVMQR | 0.699 ± 0.018 | 0.743 ± 0.0096 | 0.652 ± 0.012 | 0.754 ± 0.016 | 0.65 ± 0.036 | 0.681 ± 0.051 | 0.721 ± 0.026 | 0.73 ± 0.017
RRSRLYKKAGLM | 0.609 ± 0.011 | 0.7374 ± 0.0017 | 0.643 ± 0.02 | 0.745 ± 0.011 | 0.179 ± 0.001 | 0.181 ± 0.037 | 0.296 ± 0.0014 | 0.301 ± 0.064
